{"source": "IntAct's records for PubMed 19536132", "parents": {"B1": {"name": "Conserved oligomeric Golgi complex subunit 4 (Homo sapiens), Q9H9E3 (parent)", "chain": "MADLDSPPKLSGVQQPSEGVGGGRCSEISAELIRSLTELQELEAVYERLCGEEKVVERELDALLEQQNTIESKMVTLHRMGPNLQLIEGDAKQLAGMITFTCNLAENVSSKVRQLDLAKNRLYQAIQRADDILDLKFCMDGVQTALRSEDYEQAAAHTHRYLCLDKSVIELSRQGKEGSMIDANLKLLQEAEQRLKAIVAEKFAIATKEGDLPQVERFFKIFPLLGLHEEGLRKFSEYLCKQVASKAEENLLMVLGTDMSDRRAAVIFADTLTLLFEGIARIVETHQPIVETYYGPGRLYTLIKYLQVECDRQVEKVVDKFIKQRDYHQQFRHVQNNLMRNSTTEKIEPRELDPILTEVTLMNARSELYLRFLKKRISSDFEVGDSMASEEVKQEHQKCLDKLLNNCLLSCTMQELIGLYVTMEEYFMRETVNKAVALDTYEKGQLTSSMVDDVFYIVKKCIGRALSSSSIDCLCAMINLATTELESDFRDVLCNKLRMGFPATTFQDIQRGVTSAVNIMHSSLQQGKFDTKGIESTDEAKMSFLVTLNNVEVCSENISTLKKTLESDCTKLFSQGIGGEQAQAKFDSCLSDLAAVSNKFRDLLQEGLTELNSTAIKPQVQPWINSFFSVSHNIEEEEFNDYEANDPWVQQFILNLEQQMAEFKASLSPVIYDSLTGLMTSLVAVELEKVVLKSTFNRLGGLQFDKELRSLIAYLTTVTTWTIRDKFARLSQMATILNLERVTEILDYWGPNSGPLTWRLTPAEVRQVLALRIDFRSEDIKRLRL"}}}
{"variants_of": "B1", "conditions": "with scfd1_human SCFD1, Q8WVM8"}
{"variant": "E71A", "effect of a mutation on the interaction": "disrupting interaction"}
{"variant": "E53A", "effect of a mutation on the interaction": "disrupting interaction"}
{"variants_of": "B1", "conditions": "with scfd1_human SCFD1, Q8WVM8", "remark": "another data set of the same source"}
{"variant": "E53A", "effect of a mutation on the interaction": "decreasing interaction"}
